The text below walks through data of PMC3805524, “GmSAL1 Hydrolyzes Inositol-1,4,5-Trisphosphate and Regulates Stomatal Closure in Detached Leaves and Ion Compartmentalization in Plant Cells” (PLoS ONE, 2013).

Substrate in the series: O=P(O)(O)O[C@@H]1[C@H](O)[C@H](O)[C@@H](OP(=O)(O)O)[C@H](OP(=O)(O)O)[C@H]1O
As to the kind of experiment: purified protein. As to conditions: 25 mM Tris-HCl pH 7.5, 1 mM MgCl2, 37°C, 30 min, IP3 0.0125-0.2 mM. In kind it is biochemical, Glycine max.

B1: GmSAL1 (Glycine max) (protein)
chain: MPYEKEFAAAKKAATLAARLCKKVQKALLQSDVHSKSDKSPVTVADYGSQALVSFILERELPSEPFSLVAEEDSGDLRKESGQDTLKRITELVNDTLASEGSNSFSTLTTDDVLAAIDGGKSEGGSVGRHWVLDPIDGTKGFVRGDQYAIALALLDEGKVVLGVLACPNLPLASIGSNQQLSSSNEVGCLFFAKVGDGTYMQALGGSTQTRVHVCDIDNPEEASFFESFEAAHSSHDLSSSIAEKLGVKAPPVRIDSQAKYGALSRGDGAIYLRFPHKGYREKIWDHAAGSIVVTEAGGIAMDAAGNPLDFSKGKFLDVVSGIIVTNQKLKASLLRAVKEALNEKVSSL
notes: cloning primers encode N-terminal MPYEKEF and C-terminal KVSSL
What is called Km is the concentration of substrate that gives half-maximal velocity. By kcat is commonly meant the number of substrate molecules converted per active site and unit of time at saturation. On to B1, for which the Km was found to be 10.8 ± 0.1 µM and the turnover number (kcat) is 1.13 ± 0.217 s⁻¹.
